Here are results for 1 molecule from patent US20220340678A1.

Assay [1] deals with biotinylated human uPAR (human), Q03405. As to the kind of experiment: BLI (Octet) on biotinylated human uPAR; row 'None': no first antibody.
The target is the same in assay [2]. Nature of the assay: BLI (Octet) competition on biotinylated human uPAR; competitor (first antibody): M5. (In general: In BLI a coated tip is dipped into the sample, and binding shifts an interference pattern.)
Assay [3] has the same target. As to the kind of experiment: BLI (Octet) competition on biotinylated human uPAR; competitor (first antibody): ATN-368 (ATN-658).
The target in assay [4] is human uPAR expressed on HEK293 cells (human), Q03405. As to the kind of experiment: flow cytometry, HEK293 cells expressing human uPAR, 100 nM uPA present. In general terms: In flow cytometry, cells or beads pass a laser one at a time.
Assay [5] concerns the target biotinylated human uPAR (human), Q03405. Nature of the assay: BLI (Octet) competition on biotinylated human uPAR; competitor (first antibody): M1.

B1: ATN-658 (antibody)
chain 1: not shown
chain 2: VQLQESGPELVKTGASVKISCKASGYSFTSYYMHWVKQSHGKSLEWIGEINPYNGGASYNQKIKGRATFTVDTSSRTAYMQFNSLTSEDSAVYYCARSIYGHSVLDYWGQGTTVTVS
modifications: not checked
One may read the EC50 as the concentration at which the effect is half-maximal. Consider B1, for which the response in competition assay in assay [1] was 0.33; in assay [2], 0.387; in assay [3], -0.0274; in assay [5] it was -0.0144. The molecule also registered a concentration for a half-maximal effect (EC50) in assay [4] of 3.99 nM.
